# From IntAct's records for PubMed 31515488
# B1: Poliovirus receptor (Homo sapiens), P15151 (parent)
# chain: MARAMAAAWPLLLVALLVLSWPPPGTGDVVVQAPTQVPGFLGDSVTLPCYLQVPNMEVTHVSQLTWARHGESGSMAVFHQTQGPSYSESKRLEFVAARLGAELRNASLRMFGLRVEDEGNYTCLFVTFPQGSRSVDIWLRVLAKPQNTAEVQKVQLTGEPVPMARCVSTGGRPPAQITWHSDLGGMPNTSQVPGFLSGTVTVTSLWILVPSSQVDGKNVTCKVEHESFEKPQLLTVNLTVYYPPEVSISGYDNNWYLGQNEATLTCDARSNPEPTGYNWSTTMGPLPPFAVAQGAQLLIRPVDKPINTTLICNVTNALGARQAELTVQVKEGPPSEHSGISRNAIIFLVLGILVFLILLGIGIYFYWSKCSREVLWHCHLCPSSTEHASASANGHVSYSAVSRENSSSQDPQTEGTR
# partner: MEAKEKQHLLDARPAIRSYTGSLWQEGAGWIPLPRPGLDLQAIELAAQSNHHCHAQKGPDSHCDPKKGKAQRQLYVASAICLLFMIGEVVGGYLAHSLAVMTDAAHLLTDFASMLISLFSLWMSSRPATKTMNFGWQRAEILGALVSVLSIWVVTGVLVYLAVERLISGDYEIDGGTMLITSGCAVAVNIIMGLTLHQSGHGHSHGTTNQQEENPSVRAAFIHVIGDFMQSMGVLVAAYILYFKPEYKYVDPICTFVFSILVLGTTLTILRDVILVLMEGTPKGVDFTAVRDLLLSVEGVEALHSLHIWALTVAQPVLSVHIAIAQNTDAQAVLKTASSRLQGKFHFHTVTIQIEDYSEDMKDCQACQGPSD
# B2: Calcium-binding and coiled-coil domain-containing protein 2 (Homo sapiens), Q13137 (parent)
# chain: MEETIKDPPTSAVLLDHCHFSQVIFNSVEKFYIPGGDVTCHYTFTQHFIPRRKDWIGIFRVGWKTTREYYTFMWVTLPIDLNNKSAKQQEVQFKAYYLPKDDEYYQFCYVDEDGVVRGASIPFQFRPENEEDILVVTTQGEVEEIEQHNKELCKENQELKDSCISLQKQNSDMQAELQKKQEELETLQSINKKLELKVKEQKDYWETELLQLKEQNQKMSSENEKMGIRVDQLQAQLSTQEKEMEKLVQGDQDKTEQLEQLKKENDHLFLSLTEQRKDQKKLEQTVEQMKQNETTAMKKQQELMDENFDLSKRLSENEIICNALQRQKERLEGENDLLKRENSRLLSYMGLDFNSLPYQVPTSDEGGARQNPGLAYGNPYSGIQESSSPSPLSIKKCPICKADDICDHTLEQQQMQPLCFNCPICDKIFPATEKQIFEDHVFCHSL
# partner: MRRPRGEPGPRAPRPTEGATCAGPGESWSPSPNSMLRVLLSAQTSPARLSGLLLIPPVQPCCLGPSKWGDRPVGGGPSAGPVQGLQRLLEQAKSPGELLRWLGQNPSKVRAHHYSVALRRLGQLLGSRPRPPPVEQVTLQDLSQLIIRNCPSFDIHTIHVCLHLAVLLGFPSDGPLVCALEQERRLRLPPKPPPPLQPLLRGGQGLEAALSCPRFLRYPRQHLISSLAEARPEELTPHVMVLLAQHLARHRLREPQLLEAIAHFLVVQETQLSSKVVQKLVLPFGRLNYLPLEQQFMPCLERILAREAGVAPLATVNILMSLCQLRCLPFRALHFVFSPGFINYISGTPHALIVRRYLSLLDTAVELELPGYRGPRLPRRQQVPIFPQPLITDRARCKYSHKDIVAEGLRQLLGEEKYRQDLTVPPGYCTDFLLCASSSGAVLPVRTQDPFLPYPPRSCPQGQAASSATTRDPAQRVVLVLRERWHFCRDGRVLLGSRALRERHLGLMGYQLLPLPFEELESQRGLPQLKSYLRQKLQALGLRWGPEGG
# B3: Nuclear pore glycoprotein p62 (Homo sapiens), P37198 (parent)
# chain: MSGFNFGGTGAPTGGFTFGTAKTATTTPATGFSFSTSGTGGFNFGAPFQPATSTPSTGLFSLATQTPATQTTGFTFGTATLASGGTGFSLGIGASKLNLSNTAATPAMANPSGFGLGSSNLTNAISSTVTSSQGTAPTGFVFGPSTTSVAPATTSGGFSFTGGSTAQPSGFNIGSAGNSAQPTAPATLPFTPATPAATTAGATQPAAPTPTATITSTGPSLFASIATAPTSSATTGLSLCTPVTTAGAPTAGTQGFSLKAPGAASGTSTTTSTAATATATTTSSSSTTGFALNLKPLAPAGIPSNTAAAVTAPPGPGAAAGAAASSAMTYAQLESLINKWSLELEDQERHFLQQATQVNAWDRTLIENGEKITSLHREVEKVKLDQKRLDQELDFILSQQKELEDLLSPLEELVKEQSGTIYLQHADEEREKTYKLAENIDAQLKRMAQDLKDIIEHLNTSGAPADTSDPLQQICKILNAHMDSLQWIDQNSALLQRKVEEVTKVCEGRRKEQERSFRITFD
# partner: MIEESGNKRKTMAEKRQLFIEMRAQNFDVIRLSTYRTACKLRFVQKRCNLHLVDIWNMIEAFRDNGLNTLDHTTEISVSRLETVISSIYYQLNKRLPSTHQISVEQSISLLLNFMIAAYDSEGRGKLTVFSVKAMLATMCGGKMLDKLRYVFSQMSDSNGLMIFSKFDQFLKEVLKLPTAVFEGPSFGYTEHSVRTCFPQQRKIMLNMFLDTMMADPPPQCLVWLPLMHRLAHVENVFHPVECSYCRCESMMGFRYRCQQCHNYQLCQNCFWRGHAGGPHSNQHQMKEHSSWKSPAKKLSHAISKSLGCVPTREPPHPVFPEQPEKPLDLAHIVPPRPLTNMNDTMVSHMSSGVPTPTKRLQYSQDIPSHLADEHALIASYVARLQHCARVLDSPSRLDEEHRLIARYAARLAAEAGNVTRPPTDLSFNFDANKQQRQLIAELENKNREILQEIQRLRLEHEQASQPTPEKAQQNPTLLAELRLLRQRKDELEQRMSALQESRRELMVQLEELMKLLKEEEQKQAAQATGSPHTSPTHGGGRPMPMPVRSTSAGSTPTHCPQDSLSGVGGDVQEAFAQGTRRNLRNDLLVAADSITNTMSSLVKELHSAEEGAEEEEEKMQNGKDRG
# B4: Tetratricopeptide repeat protein 14 (Homo sapiens), Q96N46 (parent)
# chain: MDRDLLRQSLNCHGSSLLSLLRSEQQDNPHFRSLLGSAAEPARGPPPQHPLQGRKEKRVDNIEIQKFISKKADLLFALSWKSDAPATSEINEDSEDHYAIMPPLEQFMEIPSMDRRELFFRDIERGDIVIGRISSIREFGFFMVLICLGSGIMRDIAHLEITALCPLRDVPSHSNHGDPLSYYQTGDIIRAGIKDIDRYHEKLAVSLYSSSLPPHLSGIKLGVISSEELPLYYRRSVELNSNSLESYENVMQSSLGFVNPGVVEFLLEKLGIDESNPPSLMRGLQSKNFSEDDFASALRKKQSASWALKCVKIGVDYFKVGRHVDAMNEYNKALEIDKQNVEALVARGALYATKGSLNKAIEDFELALENCPTHRNARKYLCQTLVERGGQLEEEEKFLNAESYYKKALALDETFKDAEDALQKLHKYMQKSLELREKQAEKEEKQKTKKIETSAEKLRKLLKEEKRLKKKRRKSTSSSSVSSADESVSSSSSSSSSGHKRHKKHKRNRSESSRSSRRHSSRASSNQIDQNRKDECYPVPANTSASFLNHKQEVEKLLGKQDRLQYEKTQIKEKDRCPLSSSSLEIPDDFGGRSEDPRDFYNSYKTQAGSSKTEKPYKSERHFSSRRNSSDSFCRNSEDKIYGYRRFEKDIEGRKEHYRRWEPGSVRHSTSPASSEYSWKSVEKYKKYAHSGSRDFSRHEQRYRLNTNQGEYEREDNYGEDIKTEVPEEDALSSKEHSESSVKKNLPQNLLNIFNQIAEFEKEKGNKSKN
# B5: Isoform 1 of Mothers against decapentaplegic homolog 3 (Homo sapiens), P84022-1 (parent)
# chain: MSSILPFTPPIVKRLLGWKKGEQNGQEEKWCEKAVKSLVKKLKKTGQLDELEKAITTQNVNTKCITIPRSLDGRLQVSHRKGLPHVIYCRLWRWPDLHSHHELRAMELCEFAFNMKKDEVCVNPYHYQRVETPVLPPVLVPRHTEIPAEFPPLDDYSHSIPENTNFPAGIEPQSNIPETPPPGYLSEDGETSDHQMNHSMDAGSPNLSPNPMSPAHNNLDLQPVTYCEPAFWCSISYYELNQRVGETFHASQPSMTVDGFTDPSNSERFCLGLLSNVNRNAAVELTRRHIGRGVRLYYIGGEVFAECLSDSAIFVQSPNCNQRYGWHPATVCKIPPGCNLKIFNNQEFAALLAQSVNQGFEAVYQLTRMCTIRMSFVKGWGAEYRRQTVTSTPCWIELHLNGPLQWLDKVLTQMGSPSIRCSSVS
# partner: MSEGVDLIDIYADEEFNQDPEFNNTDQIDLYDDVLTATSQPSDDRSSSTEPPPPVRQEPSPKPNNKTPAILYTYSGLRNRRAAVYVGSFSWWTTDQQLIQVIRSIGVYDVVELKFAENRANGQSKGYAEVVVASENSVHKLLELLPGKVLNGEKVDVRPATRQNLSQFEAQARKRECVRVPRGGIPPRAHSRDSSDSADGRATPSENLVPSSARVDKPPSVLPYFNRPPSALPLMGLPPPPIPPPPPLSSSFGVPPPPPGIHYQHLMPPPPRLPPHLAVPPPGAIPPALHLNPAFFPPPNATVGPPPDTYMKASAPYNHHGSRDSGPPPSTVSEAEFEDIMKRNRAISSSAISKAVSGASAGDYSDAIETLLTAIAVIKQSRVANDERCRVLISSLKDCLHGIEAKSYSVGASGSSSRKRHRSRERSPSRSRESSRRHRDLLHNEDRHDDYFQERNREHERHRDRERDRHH
# B6: Notch homolog 2 N-terminal-like protein A (Homo sapiens), Q7Z3S9 (parent)
# chain: MCVTYHNGTGYCKCPEGFLGEYCQHRDPCEKNRCQNGGTCVAQAMLGKATCRCASGFTGEDCQYSTSHPCFVSRPCLNGGTCHMLSRDTYECTCQVGFTGKECQWTDACLSHPCANGSTCTTVANQFSCKCLTGFTGQKCETDVNECDIPGHCQHGGTCLNLPGSYQCQCLQGFTGQYCDSLYVPCAPSPCVNGGTCRQTGDFTFECNCLPETVRRGTELWERDREVWNGKEHDEN
# partner: B1 chain
# B7: Syntenin-2 (Homo sapiens), Q9H190 (parent)
# chain: MSSLYPSLEDLKVDQAIQAQVRASPKMPALPVQATAISPPPVLYPNLAELENYMGLSLSSQEVQESLLQIPEGDSTAVSGPGPGQMVAPVTGYSLGVRRAEIKPGVREIHLCKDERGKTGLRLRKVDQGLFVQLVQANTPASLVGLRFGDQLLQIDGRDCAGWSSHKAHQVVKKASGDKIVVVVRDRPFQRTVTMHKDSMGHVGFVIKKGKIVSLVKGSSAARNGLLTNHYVCEVDGQNVIGLKDKKIMEILATAGNVVTLTIIPSVIYEHMVKKLPPVLLHHTMDHSIPDA
# partner: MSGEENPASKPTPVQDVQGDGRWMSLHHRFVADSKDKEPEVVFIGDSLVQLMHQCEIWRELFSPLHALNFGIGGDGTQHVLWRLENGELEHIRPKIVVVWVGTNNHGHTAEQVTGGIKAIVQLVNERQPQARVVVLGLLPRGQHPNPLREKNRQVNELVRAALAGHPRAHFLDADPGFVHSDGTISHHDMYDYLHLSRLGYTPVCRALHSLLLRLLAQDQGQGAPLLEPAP
# Variants of: B1
# Conditions: with znt2_human SLC30A2, Q9BRI3
row,Variant,effect of a mutation on the interaction
1,A67T,with no effect

# Variants of: B2
# Conditions: with fastk_human FASTK
row,Variant,effect of a mutation on the interaction
1,V248A,with no effect

# Variants of: B3
# Conditions: with dtnb_human DTNB
row,Variant,effect of a mutation on the interaction
1,A279T,with no effect

# Variants of: B4
# Conditions: with cep70_human CEP70, Q8NHQ1
# Chain of cep70_human CEP70, Q8NHQ1 (Q8NHQ1 whole entry): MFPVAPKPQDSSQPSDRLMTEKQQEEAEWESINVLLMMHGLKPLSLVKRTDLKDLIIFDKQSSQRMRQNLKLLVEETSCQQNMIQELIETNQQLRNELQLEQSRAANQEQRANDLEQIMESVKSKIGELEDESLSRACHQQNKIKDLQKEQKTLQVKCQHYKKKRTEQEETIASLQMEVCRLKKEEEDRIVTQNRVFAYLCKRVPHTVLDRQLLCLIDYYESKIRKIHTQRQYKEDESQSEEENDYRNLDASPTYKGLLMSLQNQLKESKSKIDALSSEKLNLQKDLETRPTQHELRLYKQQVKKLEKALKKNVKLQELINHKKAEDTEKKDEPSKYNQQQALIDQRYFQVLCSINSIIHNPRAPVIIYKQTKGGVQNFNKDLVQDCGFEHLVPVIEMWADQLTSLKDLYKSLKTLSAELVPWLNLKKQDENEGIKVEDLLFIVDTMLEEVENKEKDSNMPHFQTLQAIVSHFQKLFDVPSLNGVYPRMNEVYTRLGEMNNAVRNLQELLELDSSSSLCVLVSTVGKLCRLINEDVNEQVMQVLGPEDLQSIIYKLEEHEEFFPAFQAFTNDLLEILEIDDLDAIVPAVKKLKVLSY
row,Variant,effect of a mutation on the interaction
1,E486Q,with no effect
2,S697G,with no effect

# Variants of: B5
# Conditions: with cpsf7_human CPSF7, Q8N684
row,Variant,effect of a mutation on the interaction
1,P393L,disrupting interaction strength

# Variants of: B6
# Conditions: with pvr_human PVR
row,Variant,effect of a mutation on the interaction
1,R74Q,with no effect
2,A115T,with no effect

# Variants of: B7
# Conditions: with pa1b3_human PAFAH1B3, Q15102
row,Variant,effect of a mutation on the interaction
1,V182M,with no effect
2,G225R,with no effect
3,G242R,with no effect
